Assay results taken from patent EP2762886A1.

Target: 4E wild type (overexpressed in stably transfected NIH3T3 cells)
Assay: cell-based or functional assay

For “human promyelocytic leukemia protein PML (overexpressed from pLINKSV40-PML) (from UniProt P29590 1-882)”, the viability of serum deprived cells (annexin V / propidium iodide flow cytometry) (% viable cells) was 40.
